The text below walks through data of paper PMC12486381 (Molecular Biology and Evolution, 2025).

Several values for one entry are separate records, joined by “and”; a condition that tells them apart may be missing. Equal entries are not always repeated. Where two headings read alike, the source gives them in different places.

The test system of experiment [1] is A0A0N7CEH1. Nature of the experiment: initial rate of NADPH and DHF depletion at […] nm, Michaelis-Menten fit. The experiment is classed as biochemical, Skermania phage SPI1. The following applies: 50 mM potassium phosphate pH 7, 27 °C.
Experiment [2] deals with A0A5E7Z8W7. The description is as above. The class given is biochemical, Hoeflea sp. EC-HK425. The following applies: 50 mM potassium phosphate pH 7, 27 °C.
For experiment [3], the system named is UPI001402A2DF. Described as above. The experiment is classed as biochemical. The following applies: 50 mM potassium phosphate pH 7, 27 °C.
The test system of experiment [4] is A0A839U7A6. The experiment is described as above. The experiment is classed as biochemical, Phyllobacterium trifolii. The following applies: 50 mM potassium phosphate pH 7, 27 °C.
For experiment [5], the system named is DfrB-TS (BBD027md-00173_03685). The description is as above. The following applies: read-out: K M ^DHF; DfrB domain; 50 µM NADPH, 50 mM potassium phosphate pH 7, 27 °C. The class given is biochemical.
The test system of experiment [6] is BBD029md-00326_13692. Described as above. The experiment is classed as biochemical. To be noted: 50 mM potassium phosphate pH 7, 27 °C.
The target of experiment [7] is DfrB1 (type B dihydrofolate reductase 1). Briefly: SEC.
The target in experiment [8] is DfrB homolog A0A0N7CEH1. Briefly: SEC.
For experiment [9], the target named is DfrB homolog A0A1M7UVF4. Nature of the experiment: SEC.
Experiment [10] has as its target DfrB homolog A0A1R3X8F5. Briefly: SEC.
Experiment [11] concerns the target DfrB homolog A0A5E7Z8W7. Briefly: SEC.
Experiment [12] concerns the target DfrB homolog A0A6J5PTB3. Briefly: SEC.
Experiment [13] deals with DfrB homolog A0A345GTK3. Briefly: SEC.
In experiment [14] the target is DfrB homolog A0A839U7A6. Nature of the experiment: SEC.
In experiment [15] the target is DfrB homolog BBD029md-00326_13692. Nature of the experiment: SEC.
Experiment [16] deals with DfrB homolog E2SFM2. Nature of the experiment: SEC.
For experiment [17], the target named is DfrB homolog UPI001402A2DF. Nature of the experiment: SEC.
Experiment [18] deals with DfrB-TS (BBD027md-00173_03685). Nature of the experiment: SEC.
Setting [19] is: read-out: K M ^DHF, 50 µM NADPH.
[20] abbreviates: read-out: K M ^NADPH, 50 µM DHF.

Chain of DfrB1 (type B dihydrofolate reductase 1) (P00383 whole entry): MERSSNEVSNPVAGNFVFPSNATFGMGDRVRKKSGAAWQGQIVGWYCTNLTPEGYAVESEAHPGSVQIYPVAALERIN

In the case of `Nc1nc2c(c(=O)[nH]1)N=C(CNc1ccc(C(=O)N[C@@H](CCC(=O)O)C(=O)O)cc1)CN2` [DHF], the Km is 6 ± 2 µM in [1] (setting [19]); 7 ± 4 µM in experiment [2] (setting [19]); 130 ± 20 µM in [3] (setting [19]); 44 ± 5 µM in experiment [4] (setting [19]); 28 ± 3 µM in [5]; 36 ± 4 µM in experiment [6] (setting [19]). On to `NC(=O)C1=CN([C@@H]2O[C@H](COP(=O)(O)OP(=O)(O)OC[C@H]3O[C@@H](n4cnc5c(N)ncnc54)[C@H](OP(=O)(O)O)[C@@H]3O)[C@@H](O)[C@H]2O)C=CC1` [NADPH], for which the Km was 5.7 ± 0.6 µM in experiment [1] (setting [20]); 18 ± 2 µM in [2] (setting [20]); 11 ± 1 µM in [3] (setting [20]); 10 ± 5 µM in experiment [4] (setting [20]); 20 ± 10 µM in [6] (setting [20]). The molecule “DfrB1 (type B dihydrofolate reductase 1) (enzyme)” returned a stoichiometry N in [7] of 4. DfrB homolog A0A0N7CEH1 (enzyme): the stoichiometry N in experiment [8] is 4. Regarding “DfrB homolog A0A1M7UVF4 (natural protein)”, in experiment [9], the stoichiometry N turned out to be 2.

Turning to “DfrB homolog A0A1R3X8F5 (natural protein)”, the stoichiometry N in experiment [10] amounted to 4. For DfrB homolog A0A5E7Z8W7 (enzyme), the stoichiometry N in experiment [11] was determined as 4. DfrB homolog A0A6J5PTB3 (enzyme) came in with a stoichiometry N in [12] of 4. In [13], “DfrB homolog A0A345GTK3 (natural protein)” registered a stoichiometry N of 2. With DfrB homolog A0A839U7A6 (enzyme), in experiment [14], the stoichiometry N was determined as 4. The molecule “DfrB homolog BBD029md-00326_13692 (enzyme)” had a stoichiometry N in experiment [15] of 4.

In [16], DfrB homolog E2SFM2 (natural protein) returned a stoichiometry N of 4. Molecule DfrB homolog UPI001402A2DF (enzyme) registered a stoichiometry N in experiment [17] of 4. With DfrB-TS (BBD027md-00173_03685) (enzyme), in [18], the stoichiometry N was 4 and 8.
